In PMC9192595, “Dynamic interaction of BRCA2 with telomeric G-quadruplexes underlies telomere replication homeostasis”:

Columns and labels:
POT1OB = target: T1, POT1OB (human, UniProt Q9NUX5 10-278); experiment: EMSA; 100 mM KCl; EMSA: 10 nM probe, 50 mM Tris-HCl pH 7.5, 100 mM KCl, 2 mM b-ME, 10% glycerol, probe pre-incubated 37 C, gel 4 C (RAD51: +1 mM MgCl2, 2 mM ATP); smFRET: 50 mM Tris-HCl pH 7.9, 100 mM KCl, 20 mM NaCl, 1 mM DTT, 0.1 mg/ml BSA, 9% glycerol, 37 C; conditions: protein: recombinant, tags: N-MBP, C-6xHis, label: 5' 32P
T1 sequence: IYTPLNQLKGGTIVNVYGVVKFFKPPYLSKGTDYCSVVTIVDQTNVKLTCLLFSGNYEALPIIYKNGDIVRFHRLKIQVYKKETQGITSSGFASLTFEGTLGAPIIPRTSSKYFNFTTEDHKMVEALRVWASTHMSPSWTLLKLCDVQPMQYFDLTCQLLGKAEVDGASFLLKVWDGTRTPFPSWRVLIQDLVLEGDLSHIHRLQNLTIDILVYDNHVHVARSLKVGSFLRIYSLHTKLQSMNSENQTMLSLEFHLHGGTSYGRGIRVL

RAD51 [1] = target: T2, RAD51 (human, UniProt Q06609 1-339); experiment: EMSA; 250 nM RAD51, 2 mM ATP, no BRCA2OB; EMSA: 10 nM probe, 50 mM Tris-HCl pH 7.5, 100 mM KCl, 2 mM b-ME, 10% glycerol, probe pre-incubated 37 C, gel 4 C (RAD51: +1 mM MgCl2, 2 mM ATP); smFRET: 50 mM Tris-HCl pH 7.9, 100 mM KCl, 20 mM NaCl, 1 mM DTT, 0.1 mg/ml BSA, 9% glycerol, 37 C; conditions: protein: commercial; label: 5' 32P; intramolecular G4 (dynamic)
T2 sequence (Q06609 whole entry): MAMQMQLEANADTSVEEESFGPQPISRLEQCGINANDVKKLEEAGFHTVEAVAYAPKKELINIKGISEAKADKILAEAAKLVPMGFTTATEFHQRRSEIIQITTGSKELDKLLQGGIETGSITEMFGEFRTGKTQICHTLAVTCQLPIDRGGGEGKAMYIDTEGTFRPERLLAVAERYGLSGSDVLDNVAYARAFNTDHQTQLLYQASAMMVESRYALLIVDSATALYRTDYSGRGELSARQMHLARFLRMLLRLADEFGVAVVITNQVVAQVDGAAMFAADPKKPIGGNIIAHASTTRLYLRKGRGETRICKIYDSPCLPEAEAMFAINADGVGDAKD

BRCA2OB [2] = target: T3, BRCA2OB (human, UniProt P51587 2665-3197); experiment: EMSA; 100 mM KCl; rough estimate, max protein 1 uM; EMSA: 10 nM probe, 50 mM Tris-HCl pH 7.5, 100 mM KCl, 2 mM b-ME, 10% glycerol, probe pre-incubated 37 C, gel 4 C (RAD51: +1 mM MgCl2, 2 mM ATP); smFRET: 50 mM Tris-HCl pH 7.9, 100 mM KCl, 20 mM NaCl, 1 mM DTT, 0.1 mg/ml BSA, 9% glycerol, 37 C; conditions: protein: recombinant; tags: N-MBP, C-6xHis; label: 5' 32P; intramolecular G4 (dynamic)
T3 sequence: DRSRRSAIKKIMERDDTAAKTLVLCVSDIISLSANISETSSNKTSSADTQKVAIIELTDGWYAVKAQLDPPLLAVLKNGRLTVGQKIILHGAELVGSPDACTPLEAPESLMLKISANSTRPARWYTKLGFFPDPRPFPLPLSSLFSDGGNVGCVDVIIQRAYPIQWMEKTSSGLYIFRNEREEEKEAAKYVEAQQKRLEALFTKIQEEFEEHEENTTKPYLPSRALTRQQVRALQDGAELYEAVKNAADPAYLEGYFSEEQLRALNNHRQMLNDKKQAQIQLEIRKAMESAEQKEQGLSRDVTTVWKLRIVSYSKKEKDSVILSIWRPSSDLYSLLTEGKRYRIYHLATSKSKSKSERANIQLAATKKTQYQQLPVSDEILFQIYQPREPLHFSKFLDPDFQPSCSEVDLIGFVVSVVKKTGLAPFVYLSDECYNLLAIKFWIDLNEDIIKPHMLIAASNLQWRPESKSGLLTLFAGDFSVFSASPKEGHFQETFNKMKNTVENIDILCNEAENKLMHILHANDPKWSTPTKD

BRCA2OB [3] = target: T3, BRCA2OB; experiment: EMSA; 100 mM KCl; EMSA: 10 nM probe, 50 mM Tris-HCl pH 7.5, 100 mM KCl, 2 mM b-ME, 10% glycerol, probe pre-incubated 37 C, gel 4 C (RAD51: +1 mM MgCl2, 2 mM ATP); smFRET: 50 mM Tris-HCl pH 7.9, 100 mM KCl, 20 mM NaCl, 1 mM DTT, 0.1 mg/ml BSA, 9% glycerol, 37 C; conditions: protein: recombinant; tags: N-MBP, C-6xHis; label: 5' 32P; G-triplex / G3:G4
BRCA2OB [4] = target: T3, BRCA2OB; experiment: as above; conditions: protein: recombinant; tags: N-MBP, C-6xHis; label: 5' 32P; intramolecular G4
BRCA2OB [5] = target: T3, BRCA2OB; experiment: as above; conditions: protein: recombinant; tags: N-MBP, C-6xHis; label: 5' 32P; intramolecular G4; remark: listed apart in the source
RAD51 [6] = target: T2, RAD51; experiment: EMSA; ATP; facilitated by BRCA2OB, about constant with dose; EMSA: 10 nM probe, 50 mM Tris-HCl pH 7.5, 100 mM KCl, 2 mM b-ME, 10% glycerol, probe pre-incubated 37 C, gel 4 C (RAD51: +1 mM MgCl2, 2 mM ATP); smFRET: 50 mM Tris-HCl pH 7.9, 100 mM KCl, 20 mM NaCl, 1 mM DTT, 0.1 mg/ml BSA, 9% glycerol, 37 C; conditions: protein: commercial; label: 5' 32P; intramolecular G4
BRCA2OB [7] = target: T3, BRCA2OB; experiment: EMSA; 100 mM KCl; EMSA: 10 nM probe, 50 mM Tris-HCl pH 7.5, 100 mM KCl, 2 mM b-ME, 10% glycerol, probe pre-incubated 37 C, gel 4 C (RAD51: +1 mM MgCl2, 2 mM ATP); smFRET: 50 mM Tris-HCl pH 7.9, 100 mM KCl, 20 mM NaCl, 1 mM DTT, 0.1 mg/ml BSA, 9% glycerol, 37 C; conditions: protein: recombinant; tags: N-MBP, C-6xHis; label: 5' 32P; intramolecular G4; remark: listed apart in the source

GGTTAGGGTTAGGGTTAGGGTTAGGGTTAG (structured_DNA) [TelG5]
binding result (POT1OB; intramolecular G4 (dynamic)): binds | binding result (RAD51 [1]): binds | Kd (BRCA2OB [2]): 4.4 µM

GGTTAGGGTTAGGGTTAGTGTTAGGGTTAG (structured_DNA) [TelG5-G3]
binding signal (BRCA2OB [3]): 3 fold vs TelG5

GGTTTGGGTTTGGGTTTGGGTTTGGGTTTG (structured_DNA) [TelG5TTT]
Kd (BRCA2OB [4]): 0.456 µM | binding result (POT1OB; intramolecular G4): no binding | binding signal (BRCA2OB [5]): ~9 fold vs TelG5 | binding result (RAD51 [6]): binds

GGTTTGGGTTGGGTTGGGTTGGGTTTG (structured_DNA) [TelG5TT]
binding signal (BRCA2OB [7]): 13 fold vs TelG5
